Measured values reported in patent US20140087995A1 (published 2014).
Numbered stars: 1 amine (or outer) side, 2 acyl side, 3 side chain; on linkers, the order of the positions; unused ones are H or OH. Bridge positions count the residues as written; N and C are the ends. Side chains are listed from the residue outwards. Ends that are not written are not given here. * marks the point of attachment. C20 diacid = O=C(O)CCCCCCCCCCCCCCCCCCC(=O)*; γGlu = O=C(O)[C@H](CCC(=O)[*:2])N[*:1]

Legend:
rat calcitonin receptor [1] = target: T1, rat calcitonin receptor (rat, UniProt P32214 25-516); assay: SPA competition with 125I-calcitonin, membranes of BHK cells with rat calcitonin receptor (Assay VIII)
T1 construct: whole, on cells; also called rCTR; rat calcitonin (a) receptor
T1 sequence (looked up): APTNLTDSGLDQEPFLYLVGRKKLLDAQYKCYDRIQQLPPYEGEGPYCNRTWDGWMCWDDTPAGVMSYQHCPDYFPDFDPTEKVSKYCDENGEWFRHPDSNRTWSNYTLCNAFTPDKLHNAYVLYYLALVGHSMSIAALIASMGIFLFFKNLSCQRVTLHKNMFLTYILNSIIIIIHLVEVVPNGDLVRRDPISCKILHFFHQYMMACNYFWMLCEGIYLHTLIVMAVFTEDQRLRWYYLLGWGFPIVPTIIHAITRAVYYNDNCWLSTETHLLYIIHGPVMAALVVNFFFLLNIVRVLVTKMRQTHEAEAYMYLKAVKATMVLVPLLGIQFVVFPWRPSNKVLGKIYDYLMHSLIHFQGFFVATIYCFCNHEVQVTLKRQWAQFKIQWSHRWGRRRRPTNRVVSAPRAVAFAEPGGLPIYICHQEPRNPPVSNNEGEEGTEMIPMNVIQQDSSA

[2] = target: T2, rat amylin receptor (rat calcitonin receptor + rat RAMP 3) (rat, UniProt P32214 25-516; Q9JJ73 23-147); assay: SPA competition with 125I-rat amylin, membranes of BHK cells with rat calcitonin receptor + rat RAMP3 (Assay VI)
T2 construct: whole, on cells; also called rAmylin-R; rat amylin 3(a) receptor
T2 sequence (looked up) 1: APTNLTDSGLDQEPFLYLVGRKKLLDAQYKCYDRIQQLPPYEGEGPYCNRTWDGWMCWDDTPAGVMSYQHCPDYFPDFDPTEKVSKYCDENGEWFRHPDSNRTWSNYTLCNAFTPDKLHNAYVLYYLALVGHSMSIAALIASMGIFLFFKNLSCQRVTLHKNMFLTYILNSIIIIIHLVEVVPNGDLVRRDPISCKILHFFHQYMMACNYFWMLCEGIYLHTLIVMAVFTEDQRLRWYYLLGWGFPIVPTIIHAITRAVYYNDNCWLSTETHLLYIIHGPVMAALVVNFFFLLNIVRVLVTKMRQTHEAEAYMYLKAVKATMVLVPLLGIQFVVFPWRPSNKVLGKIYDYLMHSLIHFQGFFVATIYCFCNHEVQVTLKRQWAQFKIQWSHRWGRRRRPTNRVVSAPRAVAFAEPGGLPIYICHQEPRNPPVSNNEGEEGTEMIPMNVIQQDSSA
T2 sequence (looked up) 2: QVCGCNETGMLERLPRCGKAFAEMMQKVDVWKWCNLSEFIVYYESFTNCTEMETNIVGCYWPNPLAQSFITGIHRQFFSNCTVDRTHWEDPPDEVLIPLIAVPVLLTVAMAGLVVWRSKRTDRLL

[3] = target: T3, human calcitonin receptor (human, UniProt P30988 25-474); assay: ratio of binding IC50s: human calcitonin receptor over human amylin receptor (reference)
T3 construct: whole, on cells; also called hCTR; hCT
T3 sequence (looked up): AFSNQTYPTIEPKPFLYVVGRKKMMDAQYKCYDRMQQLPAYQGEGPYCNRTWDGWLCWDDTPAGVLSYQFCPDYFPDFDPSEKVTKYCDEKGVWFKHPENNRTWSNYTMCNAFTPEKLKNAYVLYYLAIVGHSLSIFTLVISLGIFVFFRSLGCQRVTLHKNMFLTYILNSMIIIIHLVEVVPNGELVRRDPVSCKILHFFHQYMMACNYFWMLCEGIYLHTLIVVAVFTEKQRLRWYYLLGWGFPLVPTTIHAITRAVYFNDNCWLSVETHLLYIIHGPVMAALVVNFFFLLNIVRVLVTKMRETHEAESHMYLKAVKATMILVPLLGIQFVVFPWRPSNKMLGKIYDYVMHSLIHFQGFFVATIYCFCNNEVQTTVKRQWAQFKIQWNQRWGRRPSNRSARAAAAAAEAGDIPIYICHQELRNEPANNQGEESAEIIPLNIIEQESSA
Summary of the method: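 Competition binding by SPA with cell membranes (35 ng/μL) and SPA beads in 50 mM Hepes pH 7.4 with 1 mM CaCl2, 5 mM MgCl2, 0.1% OA and 0.02% Tween20. Incubated 120 min at 25 °C with shaking, then counted.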

rat calcitonin receptor [4] = target: T1, rat calcitonin receptor; assay: ratio of binding IC50s: rat calcitonin receptor over rat amylin receptor (reference)
[5] = target: T4, human calcitonin receptor (human, UniProt P30988 25-474); assay: ratio of IC50 on human calcitonin receptor to IC50 on human amylin receptor (reference m42), SPA competition
T4 construct: whole, on cells; Membranes of stably transfected cells; also called hCTR; hCT
T4 sequence (looked up): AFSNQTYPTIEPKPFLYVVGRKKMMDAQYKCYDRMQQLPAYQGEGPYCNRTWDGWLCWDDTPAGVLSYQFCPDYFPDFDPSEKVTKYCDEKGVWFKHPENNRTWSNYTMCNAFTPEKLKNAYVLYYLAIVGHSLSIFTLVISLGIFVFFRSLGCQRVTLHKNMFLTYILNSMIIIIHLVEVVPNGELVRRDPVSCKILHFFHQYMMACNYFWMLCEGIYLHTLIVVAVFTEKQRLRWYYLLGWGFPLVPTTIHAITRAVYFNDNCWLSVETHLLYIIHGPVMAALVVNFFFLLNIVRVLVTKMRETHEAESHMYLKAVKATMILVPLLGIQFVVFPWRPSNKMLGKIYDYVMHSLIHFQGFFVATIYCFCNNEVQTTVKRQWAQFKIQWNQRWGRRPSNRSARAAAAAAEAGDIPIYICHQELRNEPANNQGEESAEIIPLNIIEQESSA
Experimental: The resulting pellet was resuspended, homogenized and centrifuged (20.000 rpm, 15 min) in a buffer containing 20 mM Na-HEPES and 0.1 mM EDTA (pH 7.4, buffer 2). The resulting pellet was resuspended in buffer 2 and protein concentration was measured (BCA protein Assay, Pierce). The homogenate was kept cold during the whole procedure. The membranes were kept at −80° C. until use. The assay was performed in a 384 well Optiplate (PerkinElmer) in a total volume of 40 ul. Membranes were mixed with SPA beads. Final concentration of membranes 35 ng/μL final and SPA beads was 0.05 mg/well. Test-compounds were dissolved in DMSO and further diluted in assay buffer (50 mM Hepes, pH 7.4, 1 mM CaCl2, 5 mM MgCl₂, 0.1% OA and 0.02% Tween20). […] The final mixture was incubated with shaking at 400 rpm for 120 min at 25° C. prior to centrifugation (1500 rpm, 10 min). Samples were analyzed on TopCounter™ (Packard). The IC₅₀ was calculated using (one site binding competition analysis) GraphPad Prism5 as a measure of receptor affinity.
Membranes were prepared in the following way; the cells were rinsed with PBS and incubated with Versene for approximately 5 min before harvesting. The cells were flushed with PBS and the cell-suspension was centrifuged for 5 min at 1000 rpm. Cells were homogenized (Ultrathurrax) in a buffer containing 20 mM Na-HEPES and 10 mM EDTA (pH 7.4) and centrifuged at 20.000 rpm for 15 min. The resulting pellet was resuspended, homogenized and centrifuged (20.000 rpm, 15 min) in a buffer containing 20 mM Na-HEPES and 0.1 mM EDTA (pH 7.4, buffer 2). The resulting pellet was resuspended in buffer 2 and protein concentration was measured (BCA protein Assay, Pierce). The homogenate was kept cold during the whole procedure. The membranes were kept at −80° C. until use. Assay was performed in a 384 well Optiplate (PerkinElmer) in a total volume of 40 ul. Membranes were mixed with SPA beads.

rat calcitonin receptor [6] = target: T5, rat calcitonin receptor (rat, UniProt P32214 25-516); assay: ratio of IC50 on rat calcitonin receptor to IC50 on rat amylin receptor (reference m40)
T5 construct: whole, on cells; Membranes of transiently transfected BHK tk'ts 13 cells; also called rCTR; rat calcitonin (a) receptor
T5 sequence (looked up): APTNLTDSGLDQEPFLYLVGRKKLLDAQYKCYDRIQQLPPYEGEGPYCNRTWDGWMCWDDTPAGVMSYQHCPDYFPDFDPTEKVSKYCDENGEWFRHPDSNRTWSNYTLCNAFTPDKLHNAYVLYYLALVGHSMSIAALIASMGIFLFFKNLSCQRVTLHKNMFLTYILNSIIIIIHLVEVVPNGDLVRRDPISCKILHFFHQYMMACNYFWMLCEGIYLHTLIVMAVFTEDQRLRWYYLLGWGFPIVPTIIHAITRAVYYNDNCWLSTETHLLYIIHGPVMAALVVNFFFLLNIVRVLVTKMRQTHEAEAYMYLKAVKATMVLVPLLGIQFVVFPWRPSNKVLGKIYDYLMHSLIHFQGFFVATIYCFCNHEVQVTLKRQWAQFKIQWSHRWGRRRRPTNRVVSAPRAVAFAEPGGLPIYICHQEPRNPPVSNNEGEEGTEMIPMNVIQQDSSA

[7] = target: T6, rat amylin receptor (rat calcitonin receptor + rat RAMP 3) (rat, UniProt P32214 25-516; Q9JJ73 23-147); assay: SPA competition with 125I-rat amylin on membranes of BHK tk'ts 13 cells with rat calcitonin receptor + rat RAMP3 (Assay VI)
T6 construct: whole, on cells; Membranes of transiently transfected BHK tk'ts 13 cells; also called rAmylin-R; rat amylin 3(a) receptor
T6 sequence (looked up) 1: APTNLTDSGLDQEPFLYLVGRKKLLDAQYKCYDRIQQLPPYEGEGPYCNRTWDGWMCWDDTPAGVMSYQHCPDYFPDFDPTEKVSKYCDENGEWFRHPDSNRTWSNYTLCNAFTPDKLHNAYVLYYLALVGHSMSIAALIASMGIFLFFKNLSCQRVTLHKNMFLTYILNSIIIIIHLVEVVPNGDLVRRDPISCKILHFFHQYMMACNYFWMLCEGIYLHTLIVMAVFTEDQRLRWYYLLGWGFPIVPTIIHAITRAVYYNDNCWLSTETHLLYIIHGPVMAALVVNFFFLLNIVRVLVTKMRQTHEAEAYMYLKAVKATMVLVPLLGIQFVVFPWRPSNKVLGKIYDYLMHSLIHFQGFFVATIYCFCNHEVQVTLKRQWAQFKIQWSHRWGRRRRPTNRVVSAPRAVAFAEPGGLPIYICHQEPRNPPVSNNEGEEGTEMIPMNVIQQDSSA
T6 sequence (looked up) 2: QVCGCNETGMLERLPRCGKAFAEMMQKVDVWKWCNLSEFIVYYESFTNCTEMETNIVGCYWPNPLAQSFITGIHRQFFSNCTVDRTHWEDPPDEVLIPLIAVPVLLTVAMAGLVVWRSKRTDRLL

rat calcitonin receptor [8] = target: T5, rat calcitonin receptor; assay: SPA competition with 125I-calcitonin on membranes of BHK tk'ts 13 cells with rat calcitonin receptor (Assay VIII)

Row | Binder | IC50 (rat calcitonin receptor [1]) [nM] | IC50 [2] [nM] | Ratio hCT/hAmylin binding [3] | Ratio rCT/rAmylin binding (rat calcitonin receptor [4]) | Ratio hCT/hAmylin binding [5] | Ratio rCT/rAmylin binding (rat calcitonin receptor [6]) | IC50 [7] [nM] | IC50 (rat calcitonin receptor [8]) [nM]
1 | K([γGlu-C20 diacid])CNTATCATQRLAHFLRHSSPNFGAIPSSTNVGSNTY-NH2 (disulfide 2-7; N-terminus assumed; SMILES CC[C@H](C)[C@H](NC(=O)[C@H](C)NC(=O)CNC(=O)[C@H](Cc1ccccc1)NC(=O)[C@H](CC(N)=O)NC(=O)[C@@H]1CCCN1C(=O)[C@H](CO)NC(=O)[C@H](CO)NC(=O)[C@H](Cc1c[nH]cn1)NC(=O)[C@H](CCCNC(=N)N)NC(=O)[C@H](CC(C)C)NC(=O)[C@H](Cc1ccccc1)NC(=O)[C@H](Cc1c[nH]cn1)NC(=O)[C@H](C)NC(=O)[C@H](CC(C)C)NC(=O)[C@H](CCCNC(=N)N)NC(=O)[C@H](CCC(N)=O)NC(=O)[C@@H](NC(=O)[C@H](C)NC(=O)[C@@H]1CSSC[C@H](NC(=O)[C@@H](N)CCCCNC(=O)CC[C@H](NC(=O)CCCCCCCCCCCCCCCCCCC(=O)O)C(=O)O)C(=O)N[C@@H](CC(N)=O)C(=O)N[C@@H]([C@@H](C)O)C(=O)N[C@@H](C)C(=O)N[C@@H]([C@@H](C)O)C(=O)N1)[C@@H](C)O)C(=O)N1CCC[C@H]1C(=O)N[C@@H](CO)C(=O)N[C@@H](CO)C(=O)N[C@H](C(=O)N[C@@H](CC(N)=O)C(=O)N[C@H](C(=O)NCC(=O)N[C@@H](CO)C(=O)N[C@@H](CC(N)=O)C(=O)N[C@H](C(=O)N[C@@H](Cc1ccc(O)cc1)C(N)=O)[C@@H](C)O)C(C)C)[C@@H](C)O, synthetic analogue of human amylin; also called compound 70) [N^ε1-[(4S)-4-carboxy-4-(19-carboxynonadecanoylamino)butanoyl]-[His14,Arg17,Pro21,Pro27]-h-amylin] | 34.2 | 0.355 | 60.8 | 96.5 | – | – | – | –
2 | K([γGlu-γGlu-C20 diacid])CNTATCATQRLAEFLRHSSPNFGAIPSSTNVGPETY-NH2 (disulfide 2-7 (inferred), Synthetic acylated analogue of human amylin) | – | – | – | – | 17.6 | 88.5 | 0.182 | 16.1
